This passage reports EC50 results from patent US20260217806A1 (H LUNDBECK A S, published 2026).

In the experiment the target is brain derived alpha synuclein oligomers and fibrils (MSA and PD brain homogenates enriched for aggregated, … (UniProt P37840 1-140)). The experiment can be described thus: ELISA on MSA and PD brain homogenates enriched for aggregated, insoluble alpha synuclein (data not shown). (In general: An ELISA detects its analyte on a solid surface through an enzyme-linked reagent.)

B1: GM37 variant 2 (antibody, human IgG1, kappa, V domains shown)
VH: EVQLLESGGGLVQTGGSLRLSCAASGFTFSSYAMTWVRQAPGKGLEWVSAIRSQGDRTDYADSVKGRFTISRDNSQNTLYLQMNSLRAEDTAVYYCAKNWAPFDSWGQGTLVTVSS
VL: not shown
notes: VH 31 and VL 8 are firmly tied to the antibody; It is a human IgG1 kappa; also called GM37v2; GM37var2
Regarding B1, the concentration giving a half-maximal response (EC50) (commonly the concentration that produces a half-maximal response) fell in the range of 0.09 to 0.16 nM.
